Experimental data reported in article PMC8526985, “Characterization of the transactivation and nuclear localization functions of Pichia pastoris zinc finger transcription factor Mxr1p”.
Changes are numbered by the printed parent chain.

T1: Mxr1pN150 (Pichia pastoris (Komagataella phaffii), UniProt C4R818 1-150)
T1 sequence: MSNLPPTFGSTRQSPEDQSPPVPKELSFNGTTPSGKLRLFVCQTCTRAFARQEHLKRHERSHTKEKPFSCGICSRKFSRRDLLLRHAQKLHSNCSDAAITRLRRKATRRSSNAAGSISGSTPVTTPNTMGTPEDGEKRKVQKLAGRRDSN

B1: ALD6-1 promoter MXRE1 (dsDNA)
DNA 1: CCGCTCAACGGTTCTCCTCTACATCGTCCCTCTTTTGGAG
DNA 2: CTCCAAAAGAGGGACGATGTAGAGGAGAACCGTTGAGCGG
B2: MXRE1-M (dsDNA)
DNA 1: B1 DNA 1 with C17A
DNA 2: B1 DNA 2 with G24T
B3: ALD6-1 promoter MXRE2 (dsDNA)
DNA 1: CCGCACCCCCGAATTTTCACAAATTACCCCACACCCTATA
DNA 2: TATAGGGTGTGGGGTAATTTGTGAAAATTCGGGGGTGCGG
B4: MXRE2-M (dsDNA)
DNA 1: B3 DNA 1 with C30A
DNA 2: B3 DNA 2 with G11T
B5: ALD6-1 promoter MXRE3 (dsDNA)
DNA 1: ACCCTATACTCCACCACTATGAGGGTTATTAGAACTGATC
DNA 2: GATCAGTTCTAATAACCCTCATAGTGGTGGAGTATAGGGT
B6: MXRE3-M (dsDNA)
DNA 1: B5 DNA 1 with C12A
DNA 2: B5 DNA 2 with G29T

Biological target: T1, Mxr1pN150
Test: EMSA; EMSA conditions not given in the material
Conditions: protein: recombinant; (radiolabeled)

| Binder | binding result |
| --- | --- |
| B1 | binds |
| B2 | no binding |
| B3 | binds |
| B4 | no binding |
| B5 | binds |
| B6 | no binding |
